According to US20240415889A1 (UNIVERSITY OF PITTSBURGH OF THE COMMONWEALTH SYSTEM OF …, published 2024):

What was measured:
[1] = target: T1, single chain CD94/NKG2C-Fc (human); test: indirect ELISA, coated CD94/NKG2C-Fc
T1 construct: also called CD94/NKG2C polypeptide; single chain CD94/NKG2C polypeptide; not shown: Fc
Protocol: (§1) Binding and specificity of Fab or IgG to single chain CD94/NKG2A-Fc or single chain CD94/NKG2C-Fc were analyzed through indirect ELISA. Briefly, Fc-fused proteins were coated on a 96 well plate (Corning, 3690) at 200 ng/well (50 μL volume) in PBS for 2 hours at room temperature. Blocking was carried out with 3% BSA in PBS for overnight at 4° C. Next day, various concentration of Fab or IgG was applied to antigen coated plates and incubated for 1 hour at 25° C. After three times washing, anti-FLAG mouse antibody (M2 clone)-HRP conjugated (Sigma, A8592, 1:3000 dilution) or anti-human kappa goat antibody-HRP conjugated (Invitrogen, A18853, 1:3000 dilution) was applied to detect binding of either Fab or IgG. Same volume of TMB (Thermo, PI34028) was added as a substrate, and then enzymatic reactions were stopped by adding of 2N […].

[2] = target: T2, single chain CD94/NKG2A-Fc (CD94/NKG2A-IgG1 fusion polypeptide) (human); test: indirect ELISA, coated CD94/NKG2A-Fc
T2 construct: Biotinylated in the panning and BLItz experiments; also called CD94/NKG2A polypeptide; recombinant CD94/NKG2A polypeptide; not shown: human IgG1 Fc
T2 sequence (chain, as listed by the source): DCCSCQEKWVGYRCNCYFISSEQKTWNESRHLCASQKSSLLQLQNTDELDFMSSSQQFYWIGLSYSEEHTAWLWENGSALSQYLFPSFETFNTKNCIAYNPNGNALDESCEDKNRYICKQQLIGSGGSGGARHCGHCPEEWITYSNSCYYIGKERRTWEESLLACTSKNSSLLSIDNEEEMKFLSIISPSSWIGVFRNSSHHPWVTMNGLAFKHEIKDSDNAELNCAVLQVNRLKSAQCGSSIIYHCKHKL
Protocol: as §1

[3] = target: T2, single chain CD94/NKG2A-Fc …; test: BLItz biolayer interferometry
[4] = target: T3, CD94/NKG2A on the surface of primary human NK cells (human, UniProt Q13241 1-179; P26715 1-233); test: flow cytometry on primary NK cells, 10 nM antibody
T3 construct: Endogenous receptor on primary NK cells enriched from normal human PBMCs; also called intact NKG2A receptor on the surface of NK cell; cell surface NKG2A
T3 sequence (Q13241 whole entry, chain 1 of 2): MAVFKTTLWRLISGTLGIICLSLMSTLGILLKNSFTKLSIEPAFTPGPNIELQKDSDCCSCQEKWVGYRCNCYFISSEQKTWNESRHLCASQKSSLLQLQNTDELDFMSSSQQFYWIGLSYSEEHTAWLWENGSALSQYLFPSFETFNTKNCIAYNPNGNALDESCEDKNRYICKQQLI
T3 sequence (P26715 whole entry, chain 2 of 2): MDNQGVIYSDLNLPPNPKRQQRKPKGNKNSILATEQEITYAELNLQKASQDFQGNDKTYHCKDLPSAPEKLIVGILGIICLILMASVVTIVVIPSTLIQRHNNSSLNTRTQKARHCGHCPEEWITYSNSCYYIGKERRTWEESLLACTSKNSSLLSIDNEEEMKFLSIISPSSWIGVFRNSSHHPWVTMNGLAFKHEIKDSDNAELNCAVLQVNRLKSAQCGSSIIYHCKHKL
Protocol: For investigation of NKG2A expression level of NK cells, enriched NK cells were activated with 50 IU/mL of hIL-2 and treated with the indicated antibodies (100 nM) for 24 hours at 37° C. After incubation with antibodies, cells were washed with cold PBS, and then the cell surface NKG2A was detected using a FITC- or PE-conjugated anti-human CD159a (NKG2A) antibody.

T1 sequence (chain, as listed by the source): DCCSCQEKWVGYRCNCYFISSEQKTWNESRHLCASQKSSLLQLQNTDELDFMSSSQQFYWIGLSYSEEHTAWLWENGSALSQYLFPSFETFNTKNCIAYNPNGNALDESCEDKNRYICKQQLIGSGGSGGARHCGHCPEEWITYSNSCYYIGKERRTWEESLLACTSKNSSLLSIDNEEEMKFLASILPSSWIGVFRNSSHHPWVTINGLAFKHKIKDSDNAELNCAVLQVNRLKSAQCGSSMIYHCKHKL

B1: Fab Clone #1 (1B2) (Fab, V domains shown)
VH: QVQLVESGGGLVKPGGSLRLSCAASGFTFSDYYMSWIRQAPGKGLEWVSYISSSGSTIYYADSVKGRFTISRDNAKNSLYLQMNSLRAEDTAVYYCARGFYMDAWGKGTTVTVSS
VL: DIQMTQSPSSLSASVGDRVTITCRASQSISSYLNWYQQKPGKAPKLLIYAASSLQSGVPSRFSGSGSGTDFTLTISSLQPEDFGVYYCQYYGISPPFTFGPGTKVDIKR
notes: Fab from a phage library, expressed in E. coli and purified on Ni-NTA; detected in ELISA with an anti-FLAG antibody
In the case of B1, the binding result [1] is reported as “no binding” and the EC50 [2] is reported as 2.7 nM.

B2: IgG Clone #1 (1B2, IgG1-LALA-PG) (antibody, V domains shown)
VH: QVQLVESGGGLVKPGGSLRLSCAASGFTFSDYYMSWIRQAPGKGLEWVSYISSSGSTIYYADSVKGRFTISRDNAKNSLYLQMNSLRAEDTAVYYCARGFYMDAWGKGTTVTVSS
VL: DIQMTQSPSSLSASVGDRVTITCRASQSISSYLNWYQQKPGKAPKLLIYAASSLQSGVPSRFSGSGSGTDFTLTISSLQPEDFGVYYCQYYGISPPFTFGPGTKVDIKR
notes: Human IgG1 format with L234A, L235A and P329G (LALA-PG / AAG) in the Fc; Light chain detected with an anti-human kappa antibody; also called Clone #1 IgG; 1B2 (IgG Clone #1)
For B2, the Kd [3] was 1.1 nM and the binding result [4] was “binds”.

B3: IgG Clone #2 (1B2-6, IgG1-LALA-PG) (antibody, V domains shown)
VH: EVQLVESGGGLVKPGGSLRLSCAASGFTFSGYYMSWIRQAPGKGLEWLAYISNSGRTIYYADSVKGRFTISRDNSNSSLYLQMNSLRAEDTAVYYCARGFYMDAWGKGTTVTVSS
VL: DIQMTQSPSSLSASVGDRVTITCRASQSISSYLNWYQQKPGKAPKLLIYAASSLQSGVPSRFSGSGSGTDFTLTISSLQPEDFGVYYCQYYGISPPFTFGPGTKVDIKR
notes: Human IgG1 format with L234A, L235A and P329G; also called Clone #2 IgG (anti-NKG2A)
For B3, the binding result [1] was “no binding” and the EC50 [2] was 0.6 nM.
